Assay [1] deals with CreFH1, frataxin homolog from Chlamydomonas reinhardtii, mature form without the mitochondrial transit peptide (Chlamydomonas reinhardtii). In words: native gel or EMSA; 8% native PAGE of purified CreFH1 incubated 1 or 3 h with water (control) or 33 uM Fe3+, Cu2+ or Zn2+; 3 ug protein a lane; Coomassie stain, densitometry; monomer to dimer. Background: In EMSA bound probe runs differently from free probe, usually more slowly.

The target is the same in assay [2]. In words: native MS; ESI-TOF MS of recombinant CreFH1 after 3 h with Cu2+, Fe3+, Zn2+ or water; carrier 5:95 acetonitrile:ammonium acetate/ammonia 15 mM, pH 7.0; monomer to dimer.

As to “CreFH1, frataxin homolog from Chlamydomonas reinhardtii, mature form without the mitochondrial transit peptide (natural protein)”, in assay [1], the percent of protein as dimer, with Zn2+ or Fe3+ is 22%; the percent of total protein as dimer, with Cu2+ turned out to be 40%; the stoichiometry N (commonly the number of molecules, sites or subunits per partner or assembly) turned out to be 2. Moreover, the stoichiometry N in assay [2] was determined as 2.
